Measurements published in IntAct's records for PubMed 22270917.

Target: fak1_human PTK2 (UniProt Q05397)
Sequence (Q05397 whole entry, looked up): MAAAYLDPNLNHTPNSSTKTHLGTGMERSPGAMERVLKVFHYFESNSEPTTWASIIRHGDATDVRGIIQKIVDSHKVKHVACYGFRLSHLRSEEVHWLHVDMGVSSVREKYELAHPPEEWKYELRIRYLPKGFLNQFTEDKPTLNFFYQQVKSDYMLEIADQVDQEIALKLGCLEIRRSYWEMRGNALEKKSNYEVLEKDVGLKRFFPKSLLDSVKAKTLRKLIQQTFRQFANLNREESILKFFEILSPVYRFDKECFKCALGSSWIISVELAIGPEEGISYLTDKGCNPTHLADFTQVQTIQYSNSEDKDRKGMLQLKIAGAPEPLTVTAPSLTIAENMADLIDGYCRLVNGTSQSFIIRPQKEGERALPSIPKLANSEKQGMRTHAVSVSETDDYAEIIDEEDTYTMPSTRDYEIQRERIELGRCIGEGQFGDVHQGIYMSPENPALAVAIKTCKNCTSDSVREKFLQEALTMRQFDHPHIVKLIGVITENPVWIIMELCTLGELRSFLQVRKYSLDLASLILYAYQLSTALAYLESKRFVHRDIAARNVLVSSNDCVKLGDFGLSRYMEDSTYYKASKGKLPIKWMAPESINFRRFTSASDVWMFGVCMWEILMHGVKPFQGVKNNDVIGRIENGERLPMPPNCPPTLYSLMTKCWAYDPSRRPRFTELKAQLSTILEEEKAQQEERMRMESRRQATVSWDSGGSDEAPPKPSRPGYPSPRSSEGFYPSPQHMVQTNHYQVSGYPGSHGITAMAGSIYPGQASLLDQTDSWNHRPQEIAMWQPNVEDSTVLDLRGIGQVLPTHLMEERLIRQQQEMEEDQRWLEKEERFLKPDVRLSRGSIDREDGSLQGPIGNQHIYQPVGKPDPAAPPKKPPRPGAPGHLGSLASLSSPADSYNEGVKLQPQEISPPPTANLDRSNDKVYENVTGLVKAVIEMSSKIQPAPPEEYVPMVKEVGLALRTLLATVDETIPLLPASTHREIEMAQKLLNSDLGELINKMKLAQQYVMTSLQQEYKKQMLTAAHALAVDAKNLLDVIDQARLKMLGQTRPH

effect of a mutation on the interaction	Substance
disrupting interaction	Talin-1 (Gallus gallus (Chicken)), P54939 A360E
disrupting interaction	Talin-1 (Gallus gallus (Chicken)), P54939 W359A
